Where “and” joins values, the source holds several entries; their conditions need not be identical. Identical values can stand only once.
Assays:
CD47 on CCRF-CEM cells [1] = target: T1, CD47 on CCRF-CEM cells (human, UniProt Q08722 19-323); assay: cell-based or functional assay
CD47 on CCRF-CEM cells [2] = target: T1, CD47 on CCRF-CEM cells; assay: flow cytometry on antibody-opsonized CCRF-CEM cells, anti-human Alexa 647 secondary, median fluorescence, sigmoidal fit
Experimental: (§1) Phagocytosis was assayed by serum starving the macrophages in incomplete AIM V media for two hours. During this incubation period, target cells (CCRF-CEM) from two donors (donor 1 and donor 2) were labeled with CSFE (Invitrogen, #C34554) at […] for 15 minutes at room temperature. Cells were rinsed twice with PBS (Hyclone, #SH30028.02) and resuspended at 8×10⁵/mL in AIM V media. Antibody dilutions were prepared at 0.01 ug/ml to 10 ug/ml in half log dilutions and then incubated with the target cell line for 10 minutes at room temperature (a small portion is retained for flow cytometric analysis/cell binding), after which 100 μL of target cell/antibody suspension was added to the macrophage plates. Samples were treated in triplicate and with appropriate isotype controls.
(§2) Samples were incubated for 30 minutes at room temperature, rinsed 2× and then resuspended in FACS buffer and analyzed on the Attune. The EC50 values refer to the concentration that gives half the maximum binding measured as median fluorescent intensity, and was determined by non-linear fit of a sigmoidal dose response within the GraphPad Prism software.

CD47 on CCRF-CEM cells [3] = target: T1, CD47 on CCRF-CEM cells; assay: flow cytometry on antibody-opsonized CCRF-CEM cells, anti-human Alexa 647 secondary, median fluorescence, sigmoidal fit; Donor 1
Experimental: as §1, §2

CD47 on CCRF-CEM cells [4] = target: T1, CD47 on CCRF-CEM cells; assay: flow cytometry on antibody-opsonized CCRF-CEM cells, anti-human Alexa 647 secondary, median fluorescence, sigmoidal fit; Donor 2
Experimental: as §1, §2

[5] = target: T2, recombinant extracellular domain of CD47 (UniProt Q08722 19-139, limits assumed); assay: SPR; antibody captured on anti-human Fc, CD47-ECD flowed 0-100 nM; 1:1 Langmuir
T2 construct: extracellular domain; Analyte flowed over the captured antibodies in SPR; also called CD47-ECD
Experimental: The binding kinetics of anti-CD47 antibodies to the recombinant extracellular domain of CD47 were determined by using surface Plasmon resonance (SPR, MASS-1, Sierra Sensors; T200, Biacore, GE Healthcare Life Sciences). Anti-human Fc (P/N: BR-1008-39 (GE Healthcare Life Sciences)) was immobilized on a High Capacity Amine chip (P/N: SPR-AS-HCA, Sierra sensors) or CM5-S Chip (GE Healthcare Life Sciences). CD47 antibodies were captured on Human IgG FC and CD47-ECD was flowed over the surface at various concentrations ranging from zero (for double referencing) to 100 nM. In order to determine KD's, antibodies were ranked using a 1:1 Langmuir model.

T2 sequence (Q08722 19-139 limits assumed): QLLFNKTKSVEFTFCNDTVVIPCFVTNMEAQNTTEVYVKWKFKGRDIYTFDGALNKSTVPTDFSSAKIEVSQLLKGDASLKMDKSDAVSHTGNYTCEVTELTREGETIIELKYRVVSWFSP
T1 sequence (Q08722 19-323): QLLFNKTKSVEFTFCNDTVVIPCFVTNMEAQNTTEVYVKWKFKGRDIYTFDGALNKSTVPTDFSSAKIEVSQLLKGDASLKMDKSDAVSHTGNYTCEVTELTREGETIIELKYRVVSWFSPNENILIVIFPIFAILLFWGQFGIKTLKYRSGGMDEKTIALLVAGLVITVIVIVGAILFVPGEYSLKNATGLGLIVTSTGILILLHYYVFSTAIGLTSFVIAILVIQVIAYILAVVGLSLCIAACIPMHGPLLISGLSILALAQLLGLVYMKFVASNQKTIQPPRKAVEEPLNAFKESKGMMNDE

Binder	Phagocytosis EC50 (ug/mL), Donor 1 (CD47 on CCRF-CEM cells [1]) [µg/mL]	Phagocytosis EC50 (ug/mL), Donor 2 (CD47 on CCRF-CEM cells [1]) [µg/mL]	EC50 (CD47 on CCRF-CEM cells [2]) [µg/mL]	EC50 (CD47 on CCRF-CEM cells [3]) [µg/mL]	EC50 (CD47 on CCRF-CEM cells [4]) [µg/mL]	Kd [5]	koff [5]	kon [5]
Ab480/Ab1120 (HC Ab480, LC Ab1120) anti-CD47 antibody (antibody, V domains shown, FR and CDR L2 variant of AbParental) VH: QMQLVQSGAEVKKPGSSVKVSCKASGFNIKDYYLHWVRQAPGKGLEWMGWIDPDQGDTEYAQKFQGRVTITRDRSTSTAYMELRSLRAEDTAVYYCNAAYGSSSYPMDYWGQGTLVTVSS VL: NIQMTQSPSSLSASVGDRVTITCRASQDIHRYLSWFQQKPGKVPKHLIYRYVRFVDGVPSRFSGSGSGTEFTLTISSLQPEDFATYYCLQYDEFPYTFGGGTKVEIK	0.73	2.01	–	0.33	0.17	–	–	–
Ab356/Ab1129 (HC Ab356, LC Ab1129) anti-CD47 antibody (antibody, V domains shown, FR and CDR L2 variant of AbParental; The label order is HC/LC although the head says 'LC/HC'; r466 is used) VH: QMQLVQSGAEVKKPGSSVKVSCKASGFNIKDYYLHWVRQAPGKGLEWMGWIDPDQGDTEYAQKFQGRVTITRDRSTSTAYMELRSLRAEDTAVYYCNAAYGSSSYPMDYWGQGTTVTVSS VL: NIQMTQSPSSLSASVGDRVTITCRASQDIHRYLSWFQQKPGKVPKHLIYRHIRFVDGVPSRFSGSGSGTEFTLTISSLQPEDFATYYCLQYDEFPYTFGGGTKVEIK	12.8	–	–	0.16	–	–	–	–
Ab356/Ab1127 (HC Ab356, LC Ab1127) anti-CD47 antibody (antibody, V domains shown, FR and CDR L2 variant of AbParental; The label order is HC/LC although the head says 'LC/HC'; r460 is used) VH: QMQLVQSGAEVKKPGSSVKVSCKASGFNIKDYYLHWVRQAPGKGLEWMGWIDPDQGDTEYAQKFQGRVTITRDRSTSTAYMELRSLRAEDTAVYYCNAAYGSSSYPMDYWGQGTTVTVSS VL: NIQMTQSPSSLSASVGDRVTITCRASQDIHRYLSWFQQKPGKVPKHLIYRESRFVDGVPSRFSGSGSGTEFTLTISSLQPEDFATYYCLQYDEFPYTFGGGTKVEIK	0.66	0.96	–	0.11	0.15	–	–	–

Continued, values first:

Phagocytosis EC50 (ug/mL), Donor 1 (CD47 on CCRF-CEM cells [1]) [µg/mL]	Phagocytosis EC50 (ug/mL), Donor 2 (CD47 on CCRF-CEM cells [1]) [µg/mL]	EC50 (CD47 on CCRF-CEM cells [2]) [µg/mL]	EC50 (CD47 on CCRF-CEM cells [3]) [µg/mL]	EC50 (CD47 on CCRF-CEM cells [4]) [µg/mL]	Kd [5]	koff [5]	kon [5]	Binder
0.15	0.62	0.015	–	–	–	–	–	Ab1119/Ab170 (LC Ab1119, HC Ab170) anti-CD47 antibody (antibody, V domains shown, Variant of AbParental) VH: QMQLVQSGAEVKKPGSSVKVSCKASGFNIKDYYLHWVRQAPGKGLEWMGWIDPDQGDTEYAQKFQGRVTITRDRSTSTAYMELRSLRSEDTAVYYCNAAYGSSSYPMDYWGQGTTVTVSS VL: NIQMTQSPSSLSASVGDRVTITCRASQDIHRYLSWFQQKPGKVPKHLIYRANRLVSGVPSRFSGSGSGTEFTLTISSLQPEDFATYYCLQYDEFPYTFGGGTKVEIK
0.59	0.94	0.066	–	–	–	–	–	Ab495/Ab480 (LC Ab495, HC Ab480) anti-CD47 antibody (antibody, V domains shown, Framework variant of AbParental) VH: QMQLVQSGAEVKKPGSSVKVSCKASGFNIKDYYLHWVRQAPGKGLEWMGWIDPDQGDTEYAQKFQGRVTITRDRSTSTAYMELRSLRAEDTAVYYCNAAYGSSSYPMDYWGQGTLVTVSS VL: NIQMTQSPSSLSASVGDRVTITCKASQDIHRYLSWYQQKPGKAPKHLIYRANRLVSGVPSRFSGSGSGTEFTLTISSLQPEDFATYYCLQYDEFPYTFGGGTKVEIK
0.15	0.17	0.014	–	–	–	–	–	Ab482/Ab387 (LC Ab482, HC Ab387) anti-CD47 antibody (antibody, V domains shown, Framework variant of AbParental) VH: QMQLVQSGAEVKKPGSSVKVSCKASGFNIKDYYLHWVRQAPGKGLEWMGWIDPDQGDTEYAQKFQGRVTITRDRSTSTAYMELRSLRSEDTAVYYCNAAYGSSSYPMDYWGQGTLVTVSS VL: NIQMTQSPSSMSASVGDRVTITCKASQDIHRYLSWFQQKPGKVPKHLIYRANRLVSGVPSRFSGSGSGTEFTLTISSLQPEDFATYYCLQYDEFPYTFGGGTKVEIK
1.1	1.84	–	0.16	0.17	–	–	–	Ab480/Ab1122 (HC Ab480, LC Ab1122) anti-CD47 antibody (antibody, V domains shown, FR and CDR L2 variant of AbParental; The label order is HC/LC although the head says 'LC/HC'; r445 is used) VH: QMQLVQSGAEVKKPGSSVKVSCKASGFNIKDYYLHWVRQAPGKGLEWMGWIDPDQGDTEYAQKFQGRVTITRDRSTSTAYMELRSLRAEDTAVYYCNAAYGSSSYPMDYWGQGTLVTVSS VL: NIQMTQSPSSLSASVGDRVTITCRASQDIHRYLSWFQQKPGKVPKHLIYRYERFVDGVPSRFSGSGSGTEFTLTISSLQPEDFATYYCLQYDEFPYTFGGGTKVEIK
–	–	–	–	–	556 pM and 529 pM	0.00571 s⁻¹ and 0.00552 s⁻¹	1.03e+07 M⁻¹ s⁻¹ and 1.04e+07 M⁻¹ s⁻¹	Ab1119/Ab387 (antibody, V domains shown, Variant of AbParental; also called LC Ab1119 / HC Ab387) VH: QMQLVQSGAEVKKPGSSVKVSCKASGFNIKDYYLHWVRQAPGKGLEWMGWIDPDQGDTEYAQKFQGRVTITRDRSTSTAYMELRSLRSEDTAVYYCNAAYGSSSYPMDYWGQGTLVTVSS VL: NIQMTQSPSSLSASVGDRVTITCRASQDIHRYLSWFQQKPGKVPKHLIYRANRLVSGVPSRFSGSGSGTEFTLTISSLQPEDFATYYCLQYDEFPYTFGGGTKVEIK
